Results as given in patent publication US20250313612A1 (Adimab, published 2025).

How the values were obtained:
[1] = molecular target: T1, RSV F protein of subtype A (strain A2) on recombinant mKate-RSV (Respiratory syncytial virus subtype A …, UniProt P03420 26-574); assay: cell-based or functional assay
[2] = molecular target: RSV F protein of subtype B (18537) on recombinant mKate-RSV (Respiratory syncytial virus subtype B …, UniProt P13843 26-574); assay: cell-based or functional assay
[3] = molecular target: T2, RSV F ectodomain stabilized in the postfusion conformation (F ΔFP), subtype A (Respiratory syncytial virus subtype A, UniProt P03420 26-109; P03420 147-524); assay: BLI, IgG on AHQ sensors, 100 nM antigen
T2 construct: extracellular domain; trimer; also called Postfusion subtype A; Postfusion RSV F

[4] = molecular target: T3, RSV F ectodomain stabilized in the postfusion conformation (F ΔFP), subtype B (Respiratory syncytial virus subtype B, UniProt P13843 26-109; P13843 147-524); assay: BLI, IgG on AHQ sensors, 100 nM antigen
T3 construct: extracellular domain; trimer; also called Postfusion subtype B

[5] = molecular target: T1, RSV F protein of subtype A (strain A2) …; assay: cell-based or functional assay; remark: listed apart in the source
[6] = molecular target: human metapneumovirus (HMPV) F protein on GFP-expressing hMPV (NL/1/00, A1 sublineage) (human metapneumovirus); assay: cell-based or functional assay

B1: ADI-14559 (antibody, V domains shown)
VH: EVQLLESGGGLVKPGGSLRLSCAASGFIFTNAWMSWVRQAPGKGLEWVGRIKRKTETGTTDYAPPVKGRFTISRDDSRSTLYLQMNSLKTEDTAVYYCTTGPPYQYYDSTGYSVVDYWGQGTLVTVSS
VL: SYELTQPPSASGTPGQRVTISCSGSSSNIGSNIGINYVYWYQQLPGTAPKLLIYSTNQRPSGVPDRFSGSQSGTSASLAISGLRSEDEADYYCAAWDDSLSGPVFGGGTKLTVL
notes: IgG; also called Antibody Number 119
B1 was tested, and the “Neut IC50 (µg/ml) subtype A” value [1] was 0.057 µg/mL, the “Neut IC50 (µg/ml) subtype B” value [2] was 0.031 µg/mL and the Kd [3] was 0.204 nM. For the same binder, the Kd [4] was 0.129 nM.

B2: ADI-14535 (antibody, V domains shown)
VH: QVQLQQWGPGLVKPSQTLSLTCSVSGASVKIGSNFWTWIRQRPGKGLEWIGAIHDTGTTYYNPSLEPQVIISTDTSQNQFSLRLTSVTAADTAVYYCARGRGYTYGWRYFDYWGQGTLVTVSS
VL: SYVLTQPPSVSVSPGQTARITCSGDALPKQYAFWYQHKAGQAPVLVIKKDTERPSGIPERFSGSISGTTATLIISGVQAEDEADYYCQSSDSSGNVVLFGGGTQLTVL
notes: IgG; also called Antibody Number 95
With B2 the “Neut IC50 (µg/ml) subtype A” value [1] was > 10 µg/mL, the “Neut IC50 (µg/ml) subtype B” value [2] was > 10 µg/mL and the Kd [3] was 0.23 nM. It also gave a Kd [4] of 0.238 nM.

B3: ADI-14536 (antibody, V domains shown)
VH: QVQLVQSGGGVVQPGRSLRLSCAASGFSFSSYGMHWVRQAPGKGLEWVAAIFYHEIKDYYADSVNGRFSISRDNSKNTLYLEMYSLKVEDTAVYYCARDSGTLTGLPHDAFDIWGQGTTVTVSS
VL: DIQMTQSPSTLSASLGGRVTITCRASQSVTNRLAWYQHKPGKAPNLLIYKASTLEIGVPSRFSGSGSGTEFTLTISSLQPDDFATYYCQQYSSYSWTFGQGTKVEIK
notes: IgG; also called Antibody Number 96
With B3 the “Neut IC50 (µg/ml) subtype A” value [1] was 0.56 µg/mL, the “Neut IC50 (µg/ml) subtype B” value [2] was 0.696 µg/mL and the Kd [3] was 0.404 nM. It also gave a Kd [4] of 0.382 nM.

B4: ADI-14539 (antibody, V domains shown)
VH: QVQLVESGGGVVQPGRSLRLSCAASGFAFRVYDIHWVRQAPGKGLEWVAVAWSDGRDEFYADSVKGRITISRDNSKNTVYLQMSSLRVADTAVYYCARDSGTLTGLPHDAFDVWGQGTTVTVSS
VL: DIQLTQSPSTLSASVGDRVTITCRASQSITTRLAWYQQKLGKAPKLLVYKASTLEIGVPSRFSGRGSGTEFTLTISSLQPDDFATYYCHHYNSYSWTFGQGTKVDIK
notes: IgG; also called Antibody Number 99
B4 was tested, and the “Neut IC50 (µg/ml) subtype A” value [1] was 0.727 µg/mL, the “Neut IC50 (µg/ml) subtype B” value [2] was 0.302 µg/mL and the Kd [3] was 0.738 nM. For the same binder, the Kd [4] was 5.71 nM.

B5: ADI-14553 (antibody, V domains shown)
VH: QVQLVQSGTEVKKPGSSVNVSCKAVGGKFTSYNINWVRQAPGQGLEWMGRIIPTLGITYFAQKFQGRLTINADRSTSTAYMDLSSLRSDDTAVYYCARSNPVARDFWSGYSDDSSYAMDVWGQGTTVTVSS
VL: ETTLTQSPGTLSLSPGDRVSLSCRASQTVDKNYVAWYQQKPGQAPRLLIYGASKRAADIPDRFSGSGSGADFTLTISRLEPEDFAVYHCQQYGASAFSFGGGTKLEIK
notes: IgG
B5 was tested, and the “Neut IC50 (µg/ml) subtype A” value [1] was > 10 µg/mL, the “Neut IC50 (µg/ml) subtype B” value [2] was > 10 µg/mL and the Kd [3] was 67.1 nM. For the same binder, the Kd [4] was 117 nM.

B6: ADI-14554 (antibody, V domains shown)
VH: QVQLVQSGGGLVKPGGSLRLSCAASGFAFSNAWMSWVRQAPGKGLEWLGRIKSETDGGTTDYAAPVKGRFSISRDDSRNTLYLQMNSLESEDTAVYYCTTGPPYKYFDSTGYSVVDYWGQGTLVTVSS
VL: SYELTQPPSASGTPGQRVTISCSGSSSNIGSNYVYWYQQLPGTAPRLLIYSTNQRPSGVPDRFSGSQSGTSASLAISGLRSDDEADYYCAAWDDRMSGPVFGGGTKLTVL
notes: IgG
With B6 the “Neut IC50 (µg/ml) subtype A” value [1] was 0.736 µg/mL, the “Neut IC50 (µg/ml) subtype B” value [2] was 0.787 µg/mL and the Kd [3] was 0.388 nM. It also gave a Kd [4] of 0.197 nM.

B7: ADI-14547 (antibody, V domains shown)
VH: EVQLLESGPVLVKPTETLTLTCTVSGFSLANPDVAVAWIRQPPGKALEWLAHIFSGDETSYTTSLQNRLTISKDTSKSQVVLIMTKMDPRDTGTYFCARVLTTWHGPDYWGQGTTVTVSS
VL: ETTLTQSPLSLPVTLGQPASISCRSDQSLVYHNGNTYVSWFHQRPGQSPRRLIYKVSIRDSGVPDRFSGSGSGTDFALKISRVEAEDLGVYYCMQGSHWPHTFGQGTKVDIK
notes: IgG; also called Antibody Number 107
With B7 the “Neut IC50 (µg/ml) subtype A” value [1] was 0.198 µg/mL, the “Neut IC50 (µg/ml) subtype B” value [2] was 0.252 µg/mL and the Kd [3] was 0.169 nM. For the same binder, the Kd [4] was 0.269 nM.

B8: ADI-14561 (antibody, V domains shown)
VH: QVQLVQSGAEVKKPGSSVRVTCKASGGTVSDYAITWVRQAPGQGLEWMGGFIPMFGVAKDAEKFQGRVTLTGDKSTNAVYMELSSLTSEDTAVYYCARSKRLPAGLSTSDYYYYYLDVWGKGTTVTVSS
VL: EIVLTQSPGTLSLSPGEGATLSCTASQNVFRTHVAWYQQTPGQAPRLLIYGGSTRATGIPDRFSGSGSGTDFTLIISRLEPEDFAVYYCHHFGTTPWTFGQGTKVEIK
notes: IgG
For B8, the “Neut IC50 (µg/ml) subtype A” value [1] was > 10 µg/mL, the “Neut IC50 (µg/ml) subtype B” value [2] was > 10 µg/mL and the Kd [3] was 3.09 nM. The Kd [4] was 2.28 nM.

B9: ADI-14538 (antibody, V domains shown)
VH: EVQLVESGGGVVQPGRSLRLSCAVSGFTFSNFGMHWVRQAPGKGLEWVAAISYDGRKTFQADSVKGRFIISRDNLKNTLNLQMNSLKTEDTAVYYCAKSSRFLDWLYNMDFWGQGTTVTVSS
VL: SYELTQPPSVSEAPGKTATITCGGIILGTSSVHWFQQKSGQAPVLVIYYDSDRPSGIPERFSGSHSGDTATLTISRVEVGDEADYYCQVWDNSHSQGVFGGGTQLTVL
notes: IgG; also called Antibody Number 98
B9 was tested, and the “Neut IC50 (µg/ml) subtype A” value [1] was > 10 µg/mL, the “Neut IC50 (µg/ml) subtype B” value [2] was > 10 µg/mL and the Kd [3] was 0.35 nM. The Kd [4] was 0.154 nM.

B10: ADI-14549 (antibody, V domains shown)
VH: EVQLVESGPALVKPTQTLTLTCTFSGFSLSSRRMCVSWIRQPPGKALEWLARIDWDDDKSYSTSLKTRLTIAKDTSKNQVVLTMTNMGPADTATYYCARTPIYDSSGYYLYYFDSWGQGTLVTVSS
VL: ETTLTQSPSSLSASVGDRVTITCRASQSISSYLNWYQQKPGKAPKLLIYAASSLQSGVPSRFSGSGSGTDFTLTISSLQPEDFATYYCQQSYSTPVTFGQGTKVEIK
notes: IgG
With B10 the “Neut IC50 (µg/ml) subtype A” value [1] was > 10 µg/mL, the “Neut IC50 (µg/ml) subtype B” value [2] was > 10 µg/mL and the Kd [3] was 0.326 nM. The Kd [4] was 2.49 nM.

B11: ADI-14441 (antibody, V domains shown)
VH: QVQLVQSGAEVKKPGSSVKISCKASGGTFNSQAIHWVRQAPGQDLEWMGNIIPGFGSPNSAQNFQGRVTFIADDSTGAAYMDLSSLKSEDTAVYYCATAGWFGESVHLDSWGQGTLVTVSS
VL: not shown
In the case of B11, the “RSV-A2 IC50” value [5] is reported as > 25 µg/mL and the “HMPV-A1 IC50” value [6] is reported as 37.8 µg/mL.

B12: ADI-14560 (antibody, V domains shown)
VH: QVQLVQSGPELKKPGESLKISCKASGYSFTSFWIAWVRQMPGKGLEFLGIIYPGDADTRYSPSFQGQVTISADKSINTAYLQWNNLKASDTAMYYCARQTTMTPDAFDLWGQGTTVTVSS
VL: EIVLTQSPATLSLSPGERATISCRASQSVSSYLAWYQQKPGQAPRLLIYEASDRATGTPARFSGSGSGTDFTLTISSLEPEDFAVYYCQQRSNWGVGTFGQGTKVEIK
notes: IgG; also called Antibody Number 120
With B12 the “Neut IC50 (µg/ml) subtype A” value [1] was > 10 µg/mL, the “Neut IC50 (µg/ml) subtype B” value [2] was > 10 µg/mL and the Kd [3] was 0.874 nM. It also gave a Kd [4] of 0.329 nM.

B13: ADI-14448 (antibody, V domains shown)
VH: EVQLVESGGGLVKPGGSLRLSCAASGSSFRYSYMSWVRQAPGKGLQWVASISPSSTYTDYADSVKGRSTISRDHDKISLQVNSLRGDDTAVYYCVRHMNLVMGPFAFDIWGRGTMVTVSS
VL: QSVVTQPPSLSGAPGQRITISCTGSSSNIGAGYDVNWYQQLPGTAPKLLIYAKTNRPSGVPERFSGSESGTSASLAITGLQPEDEADYYCQSYDRIGMYVFGTGTKLTVL
B13 was tested, and the “RSV-A2 IC50” value [5] was 0.04 µg/mL and the “HMPV-A1 IC50” value [6] was 0.05 µg/mL.

B14: ADI-14501 (antibody, V domains shown)
VH: QVQLVQSGAEVKKPGSSVKISCKASGGTFKSQAIHWVRQAPGQGLEWMGNIIPTYGSPNFAQRFLGRVTFIADDSTGAASMDLYRLTSEDTAVYYCATAGWFGELVRFDSWGQGTLVTVSS
VL: DIVMTQSPATLSVSPGERATLSCRATESISSNLAWYQQKPGQAPRLLIYGASTRATGIPARFSGSGSGTEFTLTINSLQSEDFAVYYCQQYNNWPPLTFGGGTKVDIK
With B14 the “RSV-A2 IC50” value [5] was 12.4 µg/mL and the “HMPV-A1 IC50” value [6] was 31.4 µg/mL.

B15: ADI-14546 (antibody, V domains shown)
VH: QVQLVQSGAEVKKPGSSVKVSCTASGGSFSTNSIAWLRQTPREGLEWMGGIIPVFGAAKYAQKFQGRVTISADASTTTAYLELHNLRSEDTAVYYCARGISPRTNSDWNHNYFYYYMDVWGKGTTVTVSS
VL: ETTLTQSPGTLSLSPGERATLSCRASQSIFTIYLAWYQQKPGQAPRLLIYSASNRATGIPDRFSGSGSGTDFTLTISSLEPEDFAVYYCHHYGTSPHTFGQGTRLEIK
notes: IgG
For B15, the “Neut IC50 (µg/ml) subtype A” value [1] was > 10 µg/mL, the “Neut IC50 (µg/ml) subtype B” value [2] was > 10 µg/mL and the Kd [3] was 0.589 nM. The Kd [4] was 0.472 nM.

B16: ADI-14552 (antibody, V domains shown)
VH: EVQLLESGPELKKPGSSVKVSCKASADTFNGHSIAWVRQAPGQGLEWVGGFIPIFGKAYYAQNFQGTVTISADSSTRTVYMDLFNLRSEDTAVYYCARSRKNVIGDTSAWEHMYFYMDVWGTGTTVTVSS
VL: EIVLTQSPGTLSLSPGERVTLSCRASESINKNTYLAWYQQKPGQAPRLLIYGASSRATGIPDRFSGSGSGTDFTLTISRLEPEDSAVYYCQQYGRSMTFGGGTKVEIK
notes: IgG
With B16 the “Neut IC50 (µg/ml) subtype A” value [1] was > 10 µg/mL, the “Neut IC50 (µg/ml) subtype B” value [2] was > 10 µg/mL and the Kd [3] was 1.27 nM. For the same binder, the Kd [4] was 1.11 nM.
